One test addresses T1, mouse SLC34A2 (mouse, UniProt Q9DBP0 1-697).
T1 construct: whole, on cells
T1 sequence (looked up): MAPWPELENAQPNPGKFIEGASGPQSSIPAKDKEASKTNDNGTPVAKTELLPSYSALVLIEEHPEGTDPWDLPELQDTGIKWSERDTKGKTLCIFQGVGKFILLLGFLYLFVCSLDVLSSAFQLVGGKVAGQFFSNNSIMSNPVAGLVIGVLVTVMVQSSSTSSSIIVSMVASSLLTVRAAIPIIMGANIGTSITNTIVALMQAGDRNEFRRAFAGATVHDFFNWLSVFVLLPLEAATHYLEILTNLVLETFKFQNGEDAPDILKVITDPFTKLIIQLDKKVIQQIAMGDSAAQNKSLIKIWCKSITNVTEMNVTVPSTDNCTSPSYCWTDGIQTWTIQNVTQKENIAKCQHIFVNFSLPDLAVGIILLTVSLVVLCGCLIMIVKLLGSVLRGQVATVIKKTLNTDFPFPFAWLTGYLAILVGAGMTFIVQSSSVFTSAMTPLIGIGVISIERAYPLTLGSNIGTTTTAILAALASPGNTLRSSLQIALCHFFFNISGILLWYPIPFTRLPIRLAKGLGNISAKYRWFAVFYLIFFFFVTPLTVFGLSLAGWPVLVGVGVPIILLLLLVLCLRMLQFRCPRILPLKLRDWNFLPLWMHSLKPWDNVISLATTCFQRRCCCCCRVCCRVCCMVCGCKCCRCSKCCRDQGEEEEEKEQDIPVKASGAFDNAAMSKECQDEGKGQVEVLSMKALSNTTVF
The test can be described thus: FACS, HEK293/Mouse SLC34A2 cells. On the technique in general: Flow cytometry measures light scatter and fluorescence of single cells or particles in a stream.

The target of test [1] is T2, human SLC34A2 (human, UniProt O95436 1-690).
T2 sequence (looked up): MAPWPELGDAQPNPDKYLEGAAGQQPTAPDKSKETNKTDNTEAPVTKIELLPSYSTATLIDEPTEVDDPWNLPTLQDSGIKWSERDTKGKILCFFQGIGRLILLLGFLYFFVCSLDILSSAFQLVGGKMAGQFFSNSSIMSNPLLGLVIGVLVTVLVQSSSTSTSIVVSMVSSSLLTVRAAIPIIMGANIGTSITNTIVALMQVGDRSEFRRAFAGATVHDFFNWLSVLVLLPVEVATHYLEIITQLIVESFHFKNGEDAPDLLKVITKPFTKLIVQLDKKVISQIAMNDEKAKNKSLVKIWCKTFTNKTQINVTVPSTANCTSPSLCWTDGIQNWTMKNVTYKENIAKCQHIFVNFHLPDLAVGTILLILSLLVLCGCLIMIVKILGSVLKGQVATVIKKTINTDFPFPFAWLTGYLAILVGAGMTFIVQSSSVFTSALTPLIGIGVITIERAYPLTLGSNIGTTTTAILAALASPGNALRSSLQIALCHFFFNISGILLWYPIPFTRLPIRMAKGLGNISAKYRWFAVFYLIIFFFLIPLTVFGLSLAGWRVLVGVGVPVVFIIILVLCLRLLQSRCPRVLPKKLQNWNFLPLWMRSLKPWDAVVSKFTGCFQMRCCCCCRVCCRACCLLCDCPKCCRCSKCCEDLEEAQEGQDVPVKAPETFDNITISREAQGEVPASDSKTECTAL
The test is described as follows: FACS, HEK293/human SLC34A2 cells.

The target of test [2] is T2, human SLC34A2. The test is described as follows: cell-based or functional assay.
For test [3], the target named is T2, human SLC34A2. The test can be described thus: FACS, OVCAR3 cells.
The target in test [4] is T3, Rhesus SLC34A2 (Rhesus, UniProt F7HDA3 1-690).
T3 construct: whole, on cells
T3 sequence: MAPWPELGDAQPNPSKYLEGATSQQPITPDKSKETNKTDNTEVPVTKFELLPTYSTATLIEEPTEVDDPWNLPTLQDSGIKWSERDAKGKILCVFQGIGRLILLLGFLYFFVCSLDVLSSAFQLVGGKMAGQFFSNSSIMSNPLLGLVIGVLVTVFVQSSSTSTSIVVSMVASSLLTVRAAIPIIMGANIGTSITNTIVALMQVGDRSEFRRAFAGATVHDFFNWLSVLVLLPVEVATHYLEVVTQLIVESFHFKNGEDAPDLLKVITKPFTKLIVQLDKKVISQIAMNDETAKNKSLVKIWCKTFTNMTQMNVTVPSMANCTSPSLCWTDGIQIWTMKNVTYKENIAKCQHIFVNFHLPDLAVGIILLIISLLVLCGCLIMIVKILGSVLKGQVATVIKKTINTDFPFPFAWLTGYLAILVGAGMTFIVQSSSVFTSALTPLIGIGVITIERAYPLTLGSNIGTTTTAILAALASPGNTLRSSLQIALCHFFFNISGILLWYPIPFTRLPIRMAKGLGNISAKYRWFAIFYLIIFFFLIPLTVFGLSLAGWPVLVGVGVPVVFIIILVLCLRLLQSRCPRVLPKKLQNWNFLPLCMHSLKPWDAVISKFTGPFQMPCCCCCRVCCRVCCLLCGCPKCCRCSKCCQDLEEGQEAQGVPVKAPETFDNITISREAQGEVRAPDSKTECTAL
The test can be described thus: FACS, HEK293/Rhesus SLC34A2 cells.

Test [5] deals with T3, Rhesus SLC34A2. The test is described as follows: FACS, HEK293/Rhesus SLC34A2 cells. The source holds these as a separate data set.
Test [6] addresses T2, human SLC34A2. The test is described as follows: FACS, RMG-1 cells.
Test [7] concerns the target Cynomolgus SLC34A2 (Cynomolgus). The test is described as follows: FACS, cells expressing Cynomolgus SLC34A2.
The target of test [8] is T2, human SLC34A2. The test can be described thus: FACS, OVCAR3 cells. The source holds these as a separate data set.

Values joined by “and” are separate entries in the source; they are usually repeats but may differ in a detail not shown here. Equal values may be shown once. Read-outs that look alike come from different tables or passages of the source.

B1: XMT-1536 (antibody, INN chains, looked up, V domains shown)
VH: QVQLVQSGAEVVKPGASVKMSCKASGYTFTGYNIHWVKQAPGQGLEWIGAIYPGNGDTSYKQKFRGRATLTADTSTSTVYMELSSLRSEDSAVYYCARGETARATFAYWGQGTLVTVSS
VL: DIQMTQSPSSLSASVGDRVTITCSASQDIGNFLNWYQQKPGKTVKVLIYYTSSLYSGVPSRFSGSGSGTDYTLTISSLQPEDFATYYCQQYSKLPLTFGQGTKLELK
modifications: rilsodotin auristatin payload
By EC50 is commonly meant the concentration needed to bring the measured effect to its halfway point. Low values mean greater potency, high ones weaker potency. As for B1, in the test with mouse SLC34A2, the EC50 stood at 6.13 nM. In the test with human SLC34A2 [1], the EC50 came out at 4.05 nM and the Top worked out at 34700 MFI. In the test with human SLC34A2 [2], the ADCC reporter EC50 worked out at 0.76 nM, the ADCC reporter Top (MFI) is 127000 MFI, the ADCC-HEK293 was 0.76 nM and the ADCC-OVCAR3 stood at 0.25 nM. In the test with human SLC34A2 [2], this molecule yielded a Cytotoxic Effect - MDAH-2774 of 0.28 nM, a Cytotoxic Effect - OVCAR3 of 0.029 nM, a cytotoxicity EC50 of 0.72 nM and a cytotoxicity Inhibition % of 100%. Also, in the test with human SLC34A2 [3], the EC50 was 4.31 nM and 3.99 nM; the Top (MFI) was 40200 MFI and 26700 MFI. Besides, in the test with Rhesus SLC34A2 [4], the EC50 is 2.6 nM and the Top (MFI) turned out to be 11500 MFI. In the test with Rhesus SLC34A2 [5], the EC50 worked out at 5.8 nM and the Top (MFI) came to 27000 MFI. This molecule also returned an EC50 with human SLC34A2 [6] of 7.2 nM. Besides, in [7], the EC50 is 3.72 nM. In addition, in the test with human SLC34A2 [8], the EC50 is 3.8 nM, the Top is 29000 MFI and the Top (MFI) was found to be 58400 MFI.

The values above are taken from patent US20240301052A1 (LANOVA MEDICINES DEVELOPMENT, published 2024).
